# Laboratory results published in US20210071139A1.
# Assays:
# Cdk9 = Cdk9 (UniProt Q99J95); assay: anti-TOX IP from EL4 nuclear extract, LC-MS/MS, MiST
# Thoc2 = Thoc2 (UniProt B1AZI6); assay: as above
# Ddx55 = Ddx55 (UniProt Q6ZPL9); assay: as above
# Snrpb2 = Snrpb2 (UniProt Q9CQI7); assay: as above
# Taf6 = Taf6 (UniProt Q62311); assay: as above
# Myo6 = Myo6 (UniProt Q64331); assay: as above
# Dlgap5 = Dlgap5 (UniProt Q8K4R9); assay: as above
# Metap2 = Metap2 (UniProt O08663); assay: as above
# Tpm4 = Tpm4 (UniProt Q6IRU2); assay: as above
# Tagln2 = Tagln2 (UniProt Q9WVA4); assay: as above
# Aldh18a1 = Aldh18a1 (UniProt Q9Z110); assay: as above
# Dap3 = Dap3 (UniProt Q9ER88); assay: as above
# Rrp1b = Rrp1b (UniProt Q91YK2); assay: as above
# Ash2l = Ash2l (UniProt Q91X20); assay: as above
# Pdlim1 = Pdlim1 (UniProt O70400); assay: as above
# Safb; Safb2; mKIAA0138 = assay: as above
# Anln = Anln (UniProt Q8K298); assay: as above
# Wdhd1 = Wdhd1 (UniProt P59328); assay: as above
# Cdc23 = Cdc23 (UniProt Q8BGZ4); assay: as above
# Kifc5b; Kifc1 = assay: as above
# Tsr1 = Tsr1 (UniProt Q5SWD9); assay: as above
# Mars = Mars (UniProt Q68FL6); assay: as above
# Eif4g2 = Eif4g2 (UniProt Q62448); assay: as above
# Dhx30 = Dhx30 (UniProt Q99PU8); assay: as above
# Myef2 = Myef2 (UniProt Q8C854); assay: TOX IP-MS, EL4 nuclear extract, MiST
# Kntc1 = Kntc1 (UniProt Q8C3Y4); assay: TOX IP-MS, EL4 nuclear extract, MiST
# Sequence of Kntc1 (Q8C3Y4 whole entry): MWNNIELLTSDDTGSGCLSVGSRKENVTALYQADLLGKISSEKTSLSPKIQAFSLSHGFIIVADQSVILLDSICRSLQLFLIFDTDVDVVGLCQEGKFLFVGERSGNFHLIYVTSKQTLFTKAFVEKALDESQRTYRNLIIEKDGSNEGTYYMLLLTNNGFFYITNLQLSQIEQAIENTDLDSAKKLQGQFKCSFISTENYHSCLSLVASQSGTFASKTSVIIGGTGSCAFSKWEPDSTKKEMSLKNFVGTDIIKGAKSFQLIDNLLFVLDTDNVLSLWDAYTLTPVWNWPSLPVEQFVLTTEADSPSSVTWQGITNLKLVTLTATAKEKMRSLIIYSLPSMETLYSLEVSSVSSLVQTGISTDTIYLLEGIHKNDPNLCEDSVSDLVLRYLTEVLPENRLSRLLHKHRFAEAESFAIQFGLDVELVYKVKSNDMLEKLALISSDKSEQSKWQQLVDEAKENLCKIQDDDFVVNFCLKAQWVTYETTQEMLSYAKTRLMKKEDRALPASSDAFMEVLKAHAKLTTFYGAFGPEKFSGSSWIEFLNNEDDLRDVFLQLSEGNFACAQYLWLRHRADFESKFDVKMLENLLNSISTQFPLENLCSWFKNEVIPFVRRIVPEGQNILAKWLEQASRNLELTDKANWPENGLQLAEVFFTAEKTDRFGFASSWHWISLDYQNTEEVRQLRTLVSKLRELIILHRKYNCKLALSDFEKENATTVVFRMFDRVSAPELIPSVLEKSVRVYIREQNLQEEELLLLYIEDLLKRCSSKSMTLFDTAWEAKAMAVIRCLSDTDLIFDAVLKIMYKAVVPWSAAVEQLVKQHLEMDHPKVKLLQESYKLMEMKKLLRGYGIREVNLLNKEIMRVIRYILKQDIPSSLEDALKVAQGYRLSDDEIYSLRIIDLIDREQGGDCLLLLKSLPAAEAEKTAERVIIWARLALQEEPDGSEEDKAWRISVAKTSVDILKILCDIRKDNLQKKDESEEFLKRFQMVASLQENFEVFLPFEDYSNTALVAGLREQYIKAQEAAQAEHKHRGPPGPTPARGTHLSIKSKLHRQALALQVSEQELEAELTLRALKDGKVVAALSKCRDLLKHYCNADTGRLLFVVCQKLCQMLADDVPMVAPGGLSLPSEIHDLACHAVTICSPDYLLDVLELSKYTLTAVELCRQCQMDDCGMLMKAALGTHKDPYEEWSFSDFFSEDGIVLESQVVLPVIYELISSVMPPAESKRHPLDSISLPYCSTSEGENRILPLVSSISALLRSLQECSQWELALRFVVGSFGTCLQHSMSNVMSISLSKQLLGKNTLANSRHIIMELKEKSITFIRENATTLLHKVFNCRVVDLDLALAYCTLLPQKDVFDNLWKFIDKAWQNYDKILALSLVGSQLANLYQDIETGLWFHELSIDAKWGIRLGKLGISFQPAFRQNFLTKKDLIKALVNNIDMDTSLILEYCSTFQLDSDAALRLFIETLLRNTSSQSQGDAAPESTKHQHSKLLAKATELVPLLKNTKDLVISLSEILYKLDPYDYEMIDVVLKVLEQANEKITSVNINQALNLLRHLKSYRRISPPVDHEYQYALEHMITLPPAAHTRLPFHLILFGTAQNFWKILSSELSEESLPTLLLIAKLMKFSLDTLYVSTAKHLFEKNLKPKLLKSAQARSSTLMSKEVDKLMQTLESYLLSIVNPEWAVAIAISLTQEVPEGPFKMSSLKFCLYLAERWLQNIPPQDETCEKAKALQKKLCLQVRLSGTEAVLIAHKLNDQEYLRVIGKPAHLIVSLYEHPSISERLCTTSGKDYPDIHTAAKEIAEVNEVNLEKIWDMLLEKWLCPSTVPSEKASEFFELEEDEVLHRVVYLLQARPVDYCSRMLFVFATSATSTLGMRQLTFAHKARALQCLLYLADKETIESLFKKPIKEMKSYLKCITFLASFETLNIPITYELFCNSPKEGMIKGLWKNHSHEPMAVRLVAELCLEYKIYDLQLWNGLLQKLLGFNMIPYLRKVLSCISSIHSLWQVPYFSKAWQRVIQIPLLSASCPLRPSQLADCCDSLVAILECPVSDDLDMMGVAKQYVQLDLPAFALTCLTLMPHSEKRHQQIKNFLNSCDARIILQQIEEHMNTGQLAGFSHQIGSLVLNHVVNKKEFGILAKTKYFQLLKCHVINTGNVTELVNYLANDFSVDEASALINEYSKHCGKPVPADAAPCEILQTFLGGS
# Sequence of Myo6 (Q64331 whole entry): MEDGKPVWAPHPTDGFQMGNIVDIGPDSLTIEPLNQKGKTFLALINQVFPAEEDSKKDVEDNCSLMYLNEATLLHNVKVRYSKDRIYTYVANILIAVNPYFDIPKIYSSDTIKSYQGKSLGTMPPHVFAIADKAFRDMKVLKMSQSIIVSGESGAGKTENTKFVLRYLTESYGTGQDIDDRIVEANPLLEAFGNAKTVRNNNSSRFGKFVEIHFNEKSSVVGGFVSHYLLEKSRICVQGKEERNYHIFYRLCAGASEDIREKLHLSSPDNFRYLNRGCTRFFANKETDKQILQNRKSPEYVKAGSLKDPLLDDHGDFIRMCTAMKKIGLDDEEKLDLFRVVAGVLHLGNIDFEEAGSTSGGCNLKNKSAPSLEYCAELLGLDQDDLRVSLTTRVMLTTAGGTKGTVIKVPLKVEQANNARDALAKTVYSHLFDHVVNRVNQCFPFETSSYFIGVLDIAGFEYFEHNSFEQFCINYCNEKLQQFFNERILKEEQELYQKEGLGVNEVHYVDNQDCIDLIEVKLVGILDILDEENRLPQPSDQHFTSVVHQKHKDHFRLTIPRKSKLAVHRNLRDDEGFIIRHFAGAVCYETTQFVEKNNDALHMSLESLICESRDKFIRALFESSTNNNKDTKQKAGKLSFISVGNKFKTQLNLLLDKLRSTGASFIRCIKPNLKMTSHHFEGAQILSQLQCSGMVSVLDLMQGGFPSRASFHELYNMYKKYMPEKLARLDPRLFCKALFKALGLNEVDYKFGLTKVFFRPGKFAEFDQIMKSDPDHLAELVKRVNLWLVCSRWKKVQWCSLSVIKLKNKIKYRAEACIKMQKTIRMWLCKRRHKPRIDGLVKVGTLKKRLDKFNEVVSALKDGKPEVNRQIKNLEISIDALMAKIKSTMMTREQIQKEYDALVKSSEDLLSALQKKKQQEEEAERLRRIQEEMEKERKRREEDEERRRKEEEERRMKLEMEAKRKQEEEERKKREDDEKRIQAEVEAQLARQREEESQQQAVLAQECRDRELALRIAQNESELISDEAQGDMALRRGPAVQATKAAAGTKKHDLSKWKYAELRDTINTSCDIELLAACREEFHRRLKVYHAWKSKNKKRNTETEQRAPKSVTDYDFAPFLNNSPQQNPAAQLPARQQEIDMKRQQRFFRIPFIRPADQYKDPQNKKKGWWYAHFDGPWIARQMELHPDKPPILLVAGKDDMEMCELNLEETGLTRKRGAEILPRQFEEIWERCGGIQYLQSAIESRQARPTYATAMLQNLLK
# Sequence of Cdk9 (Q99J95 whole entry): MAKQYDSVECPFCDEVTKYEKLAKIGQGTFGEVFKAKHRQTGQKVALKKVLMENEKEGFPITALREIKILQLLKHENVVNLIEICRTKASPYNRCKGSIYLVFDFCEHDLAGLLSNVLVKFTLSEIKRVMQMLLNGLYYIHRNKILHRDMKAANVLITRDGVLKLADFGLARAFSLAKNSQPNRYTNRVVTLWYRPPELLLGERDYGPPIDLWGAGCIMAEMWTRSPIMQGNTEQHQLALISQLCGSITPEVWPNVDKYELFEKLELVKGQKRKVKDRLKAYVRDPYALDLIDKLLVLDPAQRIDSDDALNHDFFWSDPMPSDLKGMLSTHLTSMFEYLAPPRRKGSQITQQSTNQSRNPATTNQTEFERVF
# Sequence of Tsr1 (Q5SWD9 whole entry): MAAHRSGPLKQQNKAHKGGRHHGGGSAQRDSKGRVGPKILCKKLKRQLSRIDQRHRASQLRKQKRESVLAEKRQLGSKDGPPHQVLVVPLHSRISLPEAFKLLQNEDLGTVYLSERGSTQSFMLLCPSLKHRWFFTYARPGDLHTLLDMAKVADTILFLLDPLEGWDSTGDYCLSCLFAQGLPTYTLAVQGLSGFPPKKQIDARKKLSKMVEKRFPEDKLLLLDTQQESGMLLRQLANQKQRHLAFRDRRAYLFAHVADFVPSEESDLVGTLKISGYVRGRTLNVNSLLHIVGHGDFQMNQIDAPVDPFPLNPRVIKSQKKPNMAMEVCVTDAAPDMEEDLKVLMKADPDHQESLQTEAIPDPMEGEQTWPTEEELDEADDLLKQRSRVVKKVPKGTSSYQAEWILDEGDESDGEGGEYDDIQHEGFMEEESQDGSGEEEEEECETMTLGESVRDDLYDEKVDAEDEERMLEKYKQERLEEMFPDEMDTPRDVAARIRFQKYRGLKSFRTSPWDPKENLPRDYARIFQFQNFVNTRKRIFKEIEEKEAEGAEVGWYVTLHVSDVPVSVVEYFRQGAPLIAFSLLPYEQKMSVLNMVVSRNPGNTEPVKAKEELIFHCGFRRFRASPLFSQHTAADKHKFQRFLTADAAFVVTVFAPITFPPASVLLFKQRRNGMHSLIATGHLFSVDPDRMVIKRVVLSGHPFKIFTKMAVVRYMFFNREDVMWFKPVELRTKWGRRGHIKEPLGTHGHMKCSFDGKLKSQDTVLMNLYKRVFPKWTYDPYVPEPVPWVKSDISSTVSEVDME
# Sequence of Snrpb2 (Q9CQI7 whole entry): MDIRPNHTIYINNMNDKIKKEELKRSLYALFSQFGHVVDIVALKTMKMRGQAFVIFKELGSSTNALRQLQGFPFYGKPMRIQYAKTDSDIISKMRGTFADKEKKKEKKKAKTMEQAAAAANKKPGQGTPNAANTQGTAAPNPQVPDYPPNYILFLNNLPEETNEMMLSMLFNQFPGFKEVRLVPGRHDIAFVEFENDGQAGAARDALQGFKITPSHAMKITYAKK
# Sequence of Tagln2 (Q9WVA4 2-199 limits assumed): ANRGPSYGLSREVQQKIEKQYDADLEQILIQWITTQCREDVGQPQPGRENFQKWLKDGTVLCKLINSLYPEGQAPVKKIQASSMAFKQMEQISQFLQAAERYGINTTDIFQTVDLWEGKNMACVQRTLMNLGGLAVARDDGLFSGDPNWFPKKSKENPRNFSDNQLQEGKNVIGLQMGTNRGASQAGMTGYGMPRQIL
substance,measurement,setting,value
TOX (from UniProt Q66JW3 1-526),Abundance,Cdk9,1.6e-05
same,MiST Score,Cdk9,0.865
same,Reproducibility,Cdk9,0.581
same,Specificity,Cdk9,1
same,Abundance,Thoc2,1.6e-06
same,MiST Score,Thoc2,0.859
same,Reproducibility,Thoc2,0.9
same,Specificity,Thoc2,0.848
same,Abundance,Ddx55,2.21e-06
same,MiST Score,Ddx55,0.863
same,Reproducibility,Ddx55,0.574
same,Specificity,Ddx55,1
same,Abundance,Snrpb2,7.46e-05
same,MiST Score,Snrpb2,0.858
same,Reproducibility,Snrpb2,0.558
same,Specificity,Snrpb2,1
same,Abundance,Taf6,1.15e-06
same,MiST Score,Taf6,0.864
same,Reproducibility,Taf6,0.578
same,Specificity,Taf6,1
same,Abundance,Myo6,5.25e-07
same,MiST Score,Myo6,0.88
same,Reproducibility,Myo6,0.63
same,Specificity,Myo6,1
same,Abundance,Dlgap5,6.65e-06
same,MiST Score,Dlgap5,0.876
same,Reproducibility,Dlgap5,0.81
same,Specificity,Dlgap5,0.914
same,Abundance,Metap2,1.54e-05
same,MiST Score,Metap2,0.881
same,Reproducibility,Metap2,0.927
same,Specificity,Metap2,0.868
same,Abundance,Tpm4,0.000138
same,MiST Score,Tpm4,0.859
same,Reproducibility,Tpm4,0.979
same,Specificity,Tpm4,0.812
same,Abundance,Tagln2,1.75e-05
same,MiST Score,Tagln2,0.875
same,Reproducibility,Tagln2,0.616
same,Specificity,Tagln2,1
same,Abundance,Aldh18a1,9.69e-06
same,MiST Score,Aldh18a1,0.887
same,Reproducibility,Aldh18a1,0.702
same,Specificity,Aldh18a1,0.979
same,Abundance,Dap3,2.69e-06
same,MiST Score,Dap3,0.859
same,Reproducibility,Dap3,0.561
same,Specificity,Dap3,1
same,Abundance,Rrp1b,4.86e-06
same,MiST Score,Rrp1b,0.875
same,Reproducibility,Rrp1b,0.955
same,Specificity,Rrp1b,0.847
same,Abundance,Ash2l,4.44e-06
same,MiST Score,Ash2l,0.879
same,Reproducibility,Ash2l,0.629
same,Specificity,Ash2l,1
same,Abundance,Pdlim1,1.21e-05
same,MiST Score,Pdlim1,0.858
same,Reproducibility,Pdlim1,0.559
same,Specificity,Pdlim1,1
same,Abundance,Safb; Safb2; mKIAA0138,3.18e-06
same,MiST Score,Safb; Safb2; mKIAA0138,0.873
same,Reproducibility,Safb; Safb2; mKIAA0138,0.609
same,Specificity,Safb; Safb2; mKIAA0138,1
same,Abundance,Anln,4.57e-07
same,MiST Score,Anln,0.861
same,Reproducibility,Anln,0.567
same,Specificity,Anln,1
same,Abundance,Wdhd1,1.64e-06
same,MiST Score,Wdhd1,0.877
same,Reproducibility,Wdhd1,0.619
same,Specificity,Wdhd1,1
same,Abundance,Cdc23,6.55e-06
same,MiST Score,Cdc23,0.872
same,Reproducibility,Cdc23,0.758
same,Specificity,Cdc23,0.931
same,Abundance,Kifc5b; Kifc1,1.73e-06
same,MiST Score,Kifc5b; Kifc1,0.88
same,Reproducibility,Kifc5b; Kifc1,0.63
same,Specificity,Kifc5b; Kifc1,1
same,Abundance,Tsr1,5.3e-06
same,MiST Score,Tsr1,0.862
same,Reproducibility,Tsr1,0.962
same,Specificity,Tsr1,0.824
same,Abundance,Mars,3.23e-07
same,MiST Score,Mars,0.877
same,Reproducibility,Mars,0.619
same,Specificity,Mars,1
same,Abundance,Eif4g2,4.84e-06
same,MiST Score,Eif4g2,0.866
same,Reproducibility,Eif4g2,0.887
same,Specificity,Eif4g2,0.864
same,Abundance,Dhx30,2.07e-06
same,MiST Score,Dhx30,0.89
same,Reproducibility,Dhx30,0.892
same,Specificity,Dhx30,0.897
Tox (from UniProt Q66JW3 1-526),Abundance,Myef2,3.8e-06
same,MiST Score,Myef2,0.993
same,Reproducibility,Myef2,0.998
same,Specificity,Myef2,1
same,Abundance,Kntc1,2.82e-06
same,MiST Score,Kntc1,0.897
same,Reproducibility,Kntc1,0.686
same,Specificity,Kntc1,1
